From US20090175866A1, “TREATMENT OF B-CELL MALIGNANCIES” (priority 2004, published 2009)

What was measured:
FGFR3-Y373C = target: T1, FGFR3-Y373C (Homo sapiens, UniProt P22607, Y373C); test: FGF-stimulated growth of B9 cells expressing Y373C-FGFR3; assay type: cell-based
T1 construct: expressed in transfected cells; host or cells: B9 cells
Method: (§1) Non-transformed rat chondrocyte cell line expressing PGFR3 in an inducible manner (RCJ-FGFR3) has been described previously (Rauchenberger R. et al. J. Biol. Chem. 2003; 278:38194-205). Cells were maintained in α-Minimum Essential Media supplemented with 15% fetal calf serum (FCS), 2 mM L-Glutamine, 100 U/ml penicillin, 100 μg/ml streptomycin, 600 μg/ml G418 (Gibco BRL, Ontario, Canada), 2 μg/ml Tetracyclin (Sigma, Ontario, Canada), and 50 μg/ml HygromycinB (Gibco BRL). FGFR3 expression was induced by removal of tetracyclin and serum starvation. […]
(§2) Cell viability was assessed by 3-(4,5-dimethylthiazol)-2,5-diphenyl tetrazolium (MTT) or (2,3-bis(2-methoxy-4-nitro-5-sulphophenyl)-5-[(phenylamino) carbonyl]-2H-tetrazolium hydroxide (XTT) dye absorbance where indicated. Cells were seeded in 96-well plates at a density of 20,000 (FDCP-1 cells), 5,000 (B9 cells) or 25,000 cells (MM cell lines) per well in culture medium. Cells were incubated in the absence or presence of one of the following cytokines: 10 ng/ml FGF9 and 5 μg/ml heparin, 1% murine IL-6, 50 ng/ml IGF-1 or 50 ng/ml human IL-6 where indicated and increasing concentrations of PRO-001, control antibody (purified human Fab) or 100 nM PD173074. […]

UTMC2 cells = test: Apoptosis of UTMC2 cells co-cultured with bone marrow stroma cells (annexin V); assay type: cell-based, human; settings: 5 μg/ml, 72 hours (FIG. 5 legend)
Method: FIG. 5 is a graph showing apoptosis of UTMC2 cells in response to treatment with PRO-001 in the presence of BMSCs (stroma). BMSCs alone (stroma) or BMSCs together with UTMC2 cells (stroma/UTMC2) were cultured with control antibody or 5 μg/ml PRO-001 for 72 hours and apoptosis was assessed by means of a flow cytometry assay of annexin V binding and propidium iodide exclusion. Values represent means of quadruplicate cultures ±SD.
For studies of apoptosis, cells were seeded at an initial density of 2.5×10^5/ml in 6 well plates coated with BMSCs and supplemented with control (vehicle or antibody) or 5 μg/ml PRO-001 and cultured for […]. Apoptosis was determined by Annexin V staining (Boehringer Mannheim, Indianapolis, Ind.) and analyzed by flow cytometry. Annexin V is a protein that binds specifically to phosphotidyl-serine in the cell membrane. Binding occurs once the membrane has started to break down and the phospholipids are released into the extracellular media.

ERK1/2 phosphorylation = ERK1/2 phosphorylation in aFGF-stimulated UTMC2 cells (flow cytometry); assay type: cell-based, human
Text: FIG. 3 is a flow cytometry chart showing phosphorylation of ERK (Extracellular signal-regulated protein kinase) in UTMC2 cells. The filled histogram represents UTMC2 without FGF stimulation (unstimulated); the light line represents cells stimulated with FGF and treated with a control antibody (FGF/vehicle); the dark line represents cells stimulated with FGF and treated with PRO-001 (FGF/PRO-001).
Determination of ERK1/2 phosphorylation by flow cytometry has been described previously (Chow S, et al., Cytometry 2001; 46:72-78). Cells were serum-starved overnight and then stimulated with 30 ng/ml of aFGF and 10 μg/ml heparin for 10 minutes at 37° C. The cells were immediately fixed by adding 10% formaldehyde directly into the culture medium to obtain a final concentration of 2%. Cells were incubated in fixative for 10 min at 37° C. then on ice for an additional 2 minutes. The cells were permeabilized by adding ice-cold methanol (to a final concentration of 90%) while vortexing and incubated on ice for 30 minutes. […] Flow cytometry was performed on a FACSCaliber® flow cytometer (BD Biosciences, San Jose, Calif.) and analyzed using Cellquest® software (Becton Dickinson).

WT FGFR3 = target: T2, WT FGFR3 (Homo sapiens, UniProt P22607); test: Viability of FGF-stimulated B9-FGFR3^WT cells; assay type: cell-based
T2 construct: expressed in transfected cells; host or cells: B9 cells
Method: FIG. 1B is a graph showing viability of B9-FGFR WT cells treated with different concentrations of PRO-001. The filled bars represent the control (no PRO-001). The dotted bars represent PRO-001 treated cells.
as §1, with “BRL).” for “BRL). FGFR3 expression was induced by removal of tetracyclin and serum starvation.”
as §2

KMS18 (FGFR3-G384D) = test: Viability of KMS18 myeloma cells; assay type: cell-based, human; settings: cells grow independent of FGF
Method: as §1, §2

KMS11 (FGFR3-Y373C) = test: Viability of KMS11 myeloma cells; assay type: cell-based, human; settings: cells grow independent of FGF
Method: as §1, §2

T2 sequence (P22607 23-806): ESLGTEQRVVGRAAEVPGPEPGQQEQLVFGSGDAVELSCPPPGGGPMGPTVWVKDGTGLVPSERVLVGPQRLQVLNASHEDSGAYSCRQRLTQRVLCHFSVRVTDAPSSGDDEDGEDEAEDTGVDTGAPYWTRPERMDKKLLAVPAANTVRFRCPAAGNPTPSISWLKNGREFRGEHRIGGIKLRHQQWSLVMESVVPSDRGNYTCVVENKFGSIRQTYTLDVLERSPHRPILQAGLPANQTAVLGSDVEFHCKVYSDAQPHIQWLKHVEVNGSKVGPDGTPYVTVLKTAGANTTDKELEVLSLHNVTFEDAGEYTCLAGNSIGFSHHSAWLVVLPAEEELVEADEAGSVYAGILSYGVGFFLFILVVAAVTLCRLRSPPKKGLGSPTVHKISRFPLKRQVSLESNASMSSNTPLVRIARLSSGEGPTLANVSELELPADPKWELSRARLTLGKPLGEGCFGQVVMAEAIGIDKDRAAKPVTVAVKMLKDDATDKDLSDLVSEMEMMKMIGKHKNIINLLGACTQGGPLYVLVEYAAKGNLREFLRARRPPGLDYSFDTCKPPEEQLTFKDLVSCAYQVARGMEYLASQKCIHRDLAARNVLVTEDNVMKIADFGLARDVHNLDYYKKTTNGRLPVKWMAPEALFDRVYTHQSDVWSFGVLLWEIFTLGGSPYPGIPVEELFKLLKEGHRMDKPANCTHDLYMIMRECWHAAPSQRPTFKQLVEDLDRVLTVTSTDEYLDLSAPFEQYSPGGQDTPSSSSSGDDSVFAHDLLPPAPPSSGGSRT
T1 sequence (P22607 23-806 Y373C): as the sequence (P22607 23-806) above, with Y351C counted along it

B1: PRO-001: human anti-FGFR3 Fab from HuCAL library; VH-CDR3 SEQ ID NO:1, VL-CDR3 SEQ ID NO:10; VH SEQ ID NO:19, VL SEQ ID NO:28 (antibody, V domains shown)
VH: QVQLQQSGPGLVKPSQTLSLTCAISGDSVSSNSAAWNWIRQSPGRGLEWLGRTYYRSKWYNDYAVSVKSRITINPDTSKNQFSLQLNSVTPEDTAVYYCARSYYPDFDYWGQGTLVTVSS
VL: DIELTQPPSVSVAPGQTARISCSGDALGDKYASWYQQKPGQAPVLVIYDDSDRPSGIPERFSGSNSGNTATLTISGTQAEDEADYYCQSYDGPDLWVFGGGTKLTVLGQ
B1 was tested, and the “IC50, FGF-stimulated growth of cells expressing Y373C-FGFR3” value (FGFR3-Y373C) was “approximately 3 μg/ml”, the “Apoptosis of UTMC2 cells co cultured with BMSC” value (UTMC2 cells) was “induces a high level of apoptosis” and the “Levels of phosphorylated ERK in aFGF-stimulated UTMC2 cells” value (ERK1/2 phosphorylation) was “return to those of unstimulated cells”. For the same molecule, the “Growth inhibition of FGF stimulated B9-FGFR3^WT cells” value (WT FGFR3; 1 μg/ml antibody) was “about 25%”, the “Growth inhibition of FGF stimulated B9-FGFR3^WT cells” value (WT FGFR3; 5 μg/ml antibody) was “more than 60%” and the “Viability of KMS18 (FGFR3-G384D)” value (KMS18 (FGFR3-G384D)) was “failed to inhibit the viability”. The “Viability of KMS11 (FGFR3-Y373C)” value (KMS11 (FGFR3-Y373C)) was “failed to inhibit the viability”.
